Measurements: PMC13039401

Target: MdtJ-His6 (Lawsonia intracellularis MdtJ, orphan, Cys-less)
Assay: size exclusion chromatography with densitometry of blot fractions
Settings: parent: est. 36; read off a plot

Substance: FtsH-His6 (E. coli FtsH, wild type) (from UniProt P0AAI3) S2K; K6A; N7L; Q23L
- response: 11%
